Measurements taken from patent US7038112B2, “Fatty acid elongases” (Miami University, priority 1997, dated 2006).
Where two headings read alike, the source gives them in different places.

What was measured:
[1] = In vitro fatty acid elongation assay with yeast microsomes, 18:0 acyl-CoA substrate; assay type: biochemical, Saccharomyces cerevisiae; settings: for (%) 20:0 acyl CoA / (%) 22:0 acyl CoA / (%) 24:0 acyl CoA / (%) 26:0 acyl CoA / (%) Total / Rate, 20:0 acyl CoA / Rate, 22:0 acyl CoA / Rate, 24:0 acyl CoA / Rate, 26:0 acyl CoA / Rate, Total: second experiment
Experimental: (§1) Transformed yeast cells were grown in the presence of either glucose or galactose (2% w/v) as described in Example 1. Cells were harvested by centrifugation at 5000×g for 10 min and washed with 10 ml ice cold isolation buffer (IB), which contains 80 mM Hepes-KOH, pH 7.2, 5 mM EGTA, 5 mM EDTA, 10 mM KC1, 320 mM sucrose and 2 mM DTT). Cells were then resuspended in enough IB to fill a 1.7 ml tube containing 700 μl of 0.5 μm glass beads and yeast microsomes were isolated from the cells essentially as described in Tillman, T. and Bell, R., J. Biol. Chem. 261:9144–9149 (1986). The microsomal membrane pellet was recovered by centrifugation at 252,000×g for 60 min. The pellet was rinsed by resuspending in 40 ml fresh IB and again recovered by centrifugation at 252000×g for 60 min. Microsomal pellets were resuspended in a minimal volume of IB, and the protein concentration adjusted to 2.5 μg μl^−1 by addition of IB containing 15% glycerol. Microsomes were frozen on dry ice and stored at −80° C. The protein concentration in microsomes was determined by the Bradford method (Bradford, 1976).
(§2) Fatty acid elongase activity was measured essentially as described in Hlousek-Radojcic, A. et al., Plant J. 8:803–809 (1995). Briefly, the standard elongation reaction mix contained 80 mM Hepes-KOH, pH 7.2, 20 mM MgCl2, 500 μM NADPH, 1 mM ATP, 100 μM malonyl-CoA, 10 μM CoA-SH and 15 μM radioactive acyl-CoA substrate. The radiolabeled substrate was either [1^−14C]18:1-CoA (50 uCi μmol^−1), [1^−14C]18:0-CoA (55 uCi μmol^−1), or [1^−14C]16:0-CoA (54 uCi μmol^−1). The reaction was initiated by the addition of yeast microsomes (5 μg protein) and the mixture incubated at 30° C. for the indicated period of time. The final reaction volume was 25 μl.
(§3) Methyl esters of the acyl-CoA elongation products were prepared as described in Example 1. Methyl esters were separated on reversed phase silica gel KC18 TLC plates (Whatman, […] thick), quantified by phosphorimaging, and analyzed on by ImageQuant software (Molecular Dynamics, Inc., Sunnyvale, Calif.). The detection limit for each product is about 0.001 nanomoles per min. per mg microsomal protein, depending on the phosphorimage exposure time.
(§4) Yeast cultures containing full-length EL1 in λYES and full-length EL2 in pYEUra3 were grown in the presence of galactose or glucose as described in Example 2. Microsomes were then prepared from each of the cultures and fatty acid elongation assays were carried out as described in Example 2.
(§5) In the first experiment, microsomes were prepared from galactose-induced cultures of EL1, EL2 and FAE1, and incubated with either [1-^14C] 18:0 acyl-CoA or [1-^14C] 18:1 acyl-CoA as substrate. The amounts of various reaction products synthesized after 30 minutes (min) were determined as described in Example 2.
In a second experiment, microsomes were prepared from galactose-induced and from glucose-repressed yeast cultures containing EL1 or EL2 coding sequences. The microsomal preparations were incubated with either 18:0 acyl-CoA or 18:1 acyl-CoA as substrate and the fatty acid reaction products determined as described above. […]

[2] = assay type: biochemical, Saccharomyces cerevisiae; settings: for (%) 20:1 acyl CoA / (%) 22:1 acyl CoA / (%) 24:1 acyl CoA / (%) 26:1 acyl CoA / (%) Total / Rate, 20:1 acyl CoA / Rate, 22:1 acyl CoA / Rate, 24:1 acyl CoA / Rate, 26:1 acyl CoA / Rate, Total: second experiment
Experimental: as §1, §2, §3, §4, §5
In a second experiment, microsomes were prepared from galactose-induced and from glucose-repressed yeast cultures containing EL1 or EL2 coding sequences. The microsomal preparations were incubated with either 18:0 acyl-CoA or 18:1 acyl-CoA as substrate and the fatty acid reaction products determined as described above.

[3] = 18:0-CoA substrate, +Galactose (induced)
[4] = 18:0-CoA substrate, +Glucose (uninduced)
[5] = 18:0-CoA substrate, galactose-induced, 30 min, first experiment
[6] = +Gal, standard reaction mix, average of two experiments
[7] = +Glu, standard reaction mix, one experiment
[8] = galactose-induced, −A&C (ATP and Coenzyme A omitted), average of two experiments
[9] = galactose-induced, −ATP, average of two experiments
[10] = galactose-induced, −CoA, average of two experiments
[11] = 18:1-CoA substrate, +Galactose (induced)
[12] = 18:1-CoA substrate, +Glucose (uninduced)
[13] = 18:1-CoA substrate, galactose-induced, 30 min, first experiment

B1: EL1: Arabidopsis β-keto acyl synthase gene product (SEQ ID NO:2) expressed in yeast microsomes (protein, listed as Arabidopsis thaliana)
chain: MDRERLTAEMAFRDSSSAVIRIRRRLPDLLTSVKLKYVKLGLHNSCNVTTILFFLIILPLTGTVLVQLTGLTFDTFSELWSNQAVQLDTATRLTCLVFLSFVLTLYVANRSKPVYLVDFSCYKPEDERKISVDSFLTMTEENGSFTDDTVQFQQRISNRAGLGDETYLPRGITSTPPKLNMSEARAEAEAVMFGALDSLFEKTGIKPAEVGILIVNCSLFNPTPSLSAMIVNHYKMREDIKSYNLGGMGCSAGLISIDLANNLLKANPNSYAVVVSTENITLNWYFGNDRSMLLCNCIFRMGGAAILLSNRRQDRKKSKYSLVNVVRTHKGSDDKNYNCVYQKEDERGTIGVSLARELMSVAGDALKTNITTLGPMVLPLSEQLMFLISLVKRKMFKLKVKPYIPDFKLAFEHFCIHAGGRAVLDEVQKNLDLKDWHMEPSRMTLHRFGNTSSSSLWYEMAYTEAKGRVKAGDRLWQIAFGSGFKCNSAVWKALRPVSTEEMTGNAWAGSIDQYPVKVVQ
[1]; [3]
  (%) 20:0 acyl CoA: 55.8%
  (%) 22:0 acyl CoA: 17.4%
  (%) 24:0 acyl CoA: 15.3%
  (%) 26:0 acyl CoA: 11.5%
  (%) Total: 100.0%
  Rate, 20:0 acyl CoA: 0.074 Nanomoles/minute/mg of microsomal protein
  Rate, 22:0 acyl CoA: 0.023 Nanomoles/minute/mg of microsomal protein
  Rate, 24:0 acyl CoA: 0.020 Nanomoles/minute/mg of microsomal protein
  Rate, 26:0 acyl CoA: 0.015 Nanomoles/minute/mg of microsomal protein
  Rate, Total: 0.133 Nanomoles/minute/mg of microsomal protein
[1]; [4]
  (%) 20:0 acyl CoA: 100.0%
  (%) 22:0 acyl CoA: 0.0%
  (%) 24:0 acyl CoA: 0.0%
  (%) 26:0 acyl CoA: 0.0%
  (%) Total: 100.0%
  Rate, 20:0 acyl CoA: 0.007 Nanomoles/minute/mg of microsomal protein
  Rate, 22:0 acyl CoA: 0.000 Nanomoles/minute/mg of microsomal protein
  Rate, 24:0 acyl CoA: 0.000 Nanomoles/minute/mg of microsomal protein
  Rate, 26:0 acyl CoA: 0.000 Nanomoles/minute/mg of microsomal protein
  Rate, Total: 0.007 Nanomoles/minute/mg of microsomal protein
[1]; 18:0-CoA substrate, galactose-induced
  effect of omission of ATP and/or CoA on overall amounts of VLCFAs synthesized: does not have a significant effect
[1]; [5]
  (%) 20:0 acyl-CoA product: 38.8%
  (%) 22:0 acyl-CoA product: 21.9%
  (%) 24:0 acyl-CoA product: 19.9%
  (%) 26:0 acyl-CoA product: 19.4%
  (%) Total acyl-CoA products: 100.0%
  Rate, 20:0 acyl-CoA product: 0.084 Nanomoles/minute/mg of microsomal protein
  Rate, 22:0 acyl-CoA product: 0.047 Nanomoles/minute/mg of microsomal protein
  Rate, 24:0 acyl-CoA product: 0.043 Nanomoles/minute/mg of microsomal protein
  Rate, 26:0 acyl-CoA product: 0.042 Nanomoles/minute/mg of microsomal protein
  Rate, Total acyl-CoA products: 0.216 Nanomoles/minute/mg of microsomal protein
[1]; [6]
  20:0 product as a percent of total products formed: 46.2%
  22:0 product as a percent of total products formed: 18.7%
  24:0 product as a percent of total products formed: 18.1%
  26:0 product as a percent of total products formed: 17.1%
  Total products as a percent of total products formed: 100.0%
[1]; [7]
  20:0 product as a percent of total products formed: 53.9%
  22:0 product as a percent of total products formed: 14.4%
  24:0 product as a percent of total products formed: 18.5%
  26:0 product as a percent of total products formed: 13.2%
  Total products as a percent of total products formed: 100.0%
[1]; galactose-induced vs glucose
  increase in overall elongase activity on induction with galactose, 18:0 acyl CoA substrate: about 19 fold
[1]; [8]
  20:0 product as a percent of total products formed: 41.7%
  22:0 product as a percent of total products formed: 19.4%
  24:0 product as a percent of total products formed: 16.7%
  26:0 product as a percent of total products formed: 22.3%
  Total products as a percent of total products formed: 100.0%
[1]; [9]
  20:0 product as a percent of total products formed: 34.4%
  22:0 product as a percent of total products formed: 13.7%
  24:0 product as a percent of total products formed: 20.6%
  26:0 product as a percent of total products formed: 31.4%
  Total products as a percent of total products formed: 100.0%
[1]; [10]
  20:0 product as a percent of total products formed: 47.8%
  22:0 product as a percent of total products formed: 18.0%
  24:0 product as a percent of total products formed: 19.1%
  26:0 product as a percent of total products formed: 15.2%
  Total products as a percent of total products formed: 100.0%
[1]; microsomes from glucose-grown cultures, standard reaction mix
  18:0-CoA elongation activity, +Glu: .037 nanomoles/minute/mg of microsomal protein
[2]
  increase in 18:1 CoA elongation, microsomes from induced vs uninduced cells: about 1.3 fold
[2]; [11]
  (%) 20:1 acyl CoA: 100.0%
  (%) 22:1 acyl CoA: 0.0%
  (%) 24:1 acyl CoA: 0.0%
  (%) 26:1 acyl CoA: 0.0%
  (%) Total: 100.0%
  Rate, 20:1 acyl CoA: 0.081 Nanomoles/minute/mg of microsomal protein
  Rate, 22:1 acyl CoA: 0.000 Nanomoles/minute/mg of microsomal protein
  Rate, 24:1 acyl CoA: 0.000 Nanomoles/minute/mg of microsomal protein
  Rate, 26:1 acyl CoA: 0.000 Nanomoles/minute/mg of microsomal protein
  Rate, Total: 0.081 Nanomoles/minute/mg of microsomal protein
[2]; [12]
  (%) 20:1 acyl CoA: 100.0%
  (%) 22:1 acyl CoA: 0.0%
  (%) 24:1 acyl CoA: 0.0%
  (%) 26:1 acyl CoA: 0.0%
  (%) Total: 100.0%
  Rate, 20:1 acyl CoA: 0.062 Nanomoles/minute/mg of microsomal protein
  Rate, 22:1 acyl CoA: 0.000 Nanomoles/minute/mg of microsomal protein
  Rate, 24:1 acyl CoA: 0.000 Nanomoles/minute/mg of microsomal protein
  Rate, 26:1 acyl CoA: 0.000 Nanomoles/minute/mg of microsomal protein
  Rate, Total: 0.062 Nanomoles/minute/mg of microsomal protein
[2]; [13]
  (%) 20:1 acyl-CoA product: 80.8%
  (%) 22:1 acyl-CoA product: 19.2%
  (%) 24:1 acyl-CoA product: 0.0%
  (%) 26:1 acyl-CoA product: 0.0%
  (%) Total acyl-CoA products: 100.0%
  Rate, 20:1 acyl-CoA product: 0.111 Nanomoles/minute/mg of microsomal protein
  Rate, 22:1 acyl-CoA product: 0.026 Nanomoles/minute/mg of microsomal protein
  Rate, 24:1 acyl-CoA product: 0.0 Nanomoles/minute/mg of microsomal protein
  Rate, 26:1 acyl-CoA product: 0.0 Nanomoles/minute/mg of microsomal protein
  Rate, Total acyl-CoA products: 0.137 Nanomoles/minute/mg of microsomal protein
